The target of series [1] is T1, ribosomal protein S8 (B. anthracis) (Bacillus anthracis, UniProt Q81VR6 1-132). The series is described as follows: fluorescence anisotropy; 10 mM Mg acetate. To be noted: protein: recombinant; tags: N-terminal 6xHis (pET28b NheI-XhoI); label: 5'-fluorescein.
Series [2] addresses ribosomal protein S8 (E. coli) (Escherichia coli, UniProt P0A7W7 1-130). In words: fluorescence anisotropy; 10 mM Mg acetate. The settings on record: protein: recombinant, tags: N-terminal 6xHis (pET28b NheI-XhoI), label: 5'-fluorescein, hairpin. (Fluorescence polarisation rises when a labelled molecule tumbles more slowly, as on binding a larger partner.)
The target in series [3] is T1, ribosomal protein S8 (B. anthracis). In words: 1:1 complex. To be noted: protein: recombinant; tags: N-terminal 6xHis (pET28b NheI-XhoI).
Series [4] deals with ribosomal protein S8 (B. anthracis) (Bacillus anthracis, UniProt Q81VR6 1-132). The series is described as follows: fluorescence anisotropy; 10 mM Mg acetate. The settings on record: protein: recombinant; tags: N-terminal 6xHis (pET28b NheI-XhoI); label: 5'-fluorescein; hairpin, asymmetric internal loop.

B1: S8 RNA aptamer, fluorescein hairpin (structured_RNA)
RNA: CGCUGGCGGGUCAGUGAUCACUUCGGUGAUAUCAGACCCGGCAGCG
In general, Kd refers to a measure of binding affinity in units of concentration. On to B1, for which the Kd in series [1] stood at 110 ± 30 nM; in series [2] (symmetric internal loop) it was 19 ± 4 nM.

B2: RNA-2 aptamer (crystal) (structured_RNA)
RNA: GGGAUGCUCAGUGAUCCUUCGGGAUAUCAGGGCAUCCC
B2: the binding result in series [3] is recorded as “binds”.

B3: helix 21 16S rRNA S8 site, fluorescein hairpin (structured_RNA)
RNA: CGCUGGCGGGAUUAAGUCGACUUCGGUCGAAACUGGUCCCGGCAGCG
For B3, the Kd in series [4] was 180 ± 60 nM; in series [2] (asymmetric internal loop), 28 ± 7 nM.
